Experimental data as given in patent publication US10286050B2 (The United States of America, as represented by the …, priority 2013, dated 2019).
“Also recorded” adds a separate entry of the source.

Assays:
[1] = biological target: HLA-A2 (Homo sapiens, UniProt P04439, D140Y/D185E/D98H/E176V/E277Q/G131W/G231S/I119V/I121R/I166T/I218V/L300P/L318F/N151K/N90K/P208A/P217A/Q86G/Q94H/R138H/R169H/T345S); settings: cited from earlier work
[2] = Storage stability of vialed product; type: physicochemical
Method: Stability and Storage: KLH-HMW is stable for at least 12 months when stored at 2 to 8° C.
(§1) Stability and Storage: The finished injectable dosage forms are stored in the freezer (−70′C) for long-term storage. Intact vials are stable for at least 6 months when stored at controlled room temperature (15° C.-30° C.) or in the refrigerator (2° C.-8° C.), and for at least 36 months when stored in the freezer (−10° C. to −25° C. and −70° C.). The peptide vial contains no preservatives; once the peptide vial is entered, unused peptide solution is discarded after 3 hours.
as §1, with “(−70° C.)” for “(−70′C)”, “C.), at least 9 months when stored” for “C.) or”

[3] = system: A2K^b transgenic mice (expressing human HLA-A*0201); settings: cited from earlier work
[4] = system: human T cells; settings: cited from earlier work; for recognition of peptide-pulsed targets by peptide-specific human T cells: human T cells specific for the named peptide
[5] = controlled room temperature (15° C.-30° C.)
[6] = freezer (−10° C. to −25° C. and −70° C.)

Row | Sequence | change of binding affinity to HLA-A2 by epitope enhancement ([1]; amino acid substitution versus wild-type peptide) | stability of intact vials [2, 5] | stability of intact vials [2, 6] | stability of intact vials ([2]; refrigerator (2° C.-8° C.)) | percentage of TARP-specific CD8+ T cells ([3]; A2K^b transgenic mice, versus wild type sequence) | recognition of peptide-pulsed targets by peptide-specific human T cells [4] | immunogenicity in human T cells ([4]; human cells) | binding affinity relative to TARP 29-37 ([1]; HLA-A2 epitopes, fold greater than TARP 29-37) [times] | level of CD8+ T cell response ([3]; A2K^b transgenic mice) | immunogenicity in A2K^b transgenic mice ([3]; dendritic cells pulsed with the peptides or DNA encoding the peptides)
1 | FLRNFSLMV [TARP 29-37-9V] | lower binding affinity to HLA-A2 than TARP29-37-3A; also recorded: did enhance the binding affinity compared with the wild-type peptide | at least 6 months | at least 36 months | at least 9 months | higher percentage of TARP-specific CD8^+ T cells than the wild type sequence | recognized targets pulsed with all three peptides equally well | immunogenic | – | – | –
2 | FVFLRNFSL [TARP 27-35] | – | at least 6 months | at least 36 months | at least 6 months | – | recognized targets pulsed with that sequence | – | 10 | higher level of CD8+ T cell response than TARP29-37 | immunogenic
